From paper PMC8916728 (2022)

T1: NRP2 a2b1b2 (human neuropilin 2 residues 145 to 595, monomeric IgG1 Fc tag) (human, UniProt O60462 145-595)
T1 chain: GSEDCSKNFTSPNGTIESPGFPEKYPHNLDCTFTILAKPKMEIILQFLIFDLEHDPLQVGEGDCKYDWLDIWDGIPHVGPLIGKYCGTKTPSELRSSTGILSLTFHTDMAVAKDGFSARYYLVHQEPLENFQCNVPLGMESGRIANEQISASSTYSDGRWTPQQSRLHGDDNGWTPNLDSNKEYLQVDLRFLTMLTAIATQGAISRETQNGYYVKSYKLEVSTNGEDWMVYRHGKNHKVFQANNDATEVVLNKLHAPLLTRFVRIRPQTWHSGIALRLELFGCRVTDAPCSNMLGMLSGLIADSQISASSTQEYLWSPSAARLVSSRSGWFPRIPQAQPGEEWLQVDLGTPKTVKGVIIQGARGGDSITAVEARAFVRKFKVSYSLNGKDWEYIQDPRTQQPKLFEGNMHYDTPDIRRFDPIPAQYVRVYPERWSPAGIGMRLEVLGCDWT

T2: monoFc-tagged NRP2 (human neuropilin 2 a1a2b1b2, residues 23 to 595) (human, UniProt O60462 23-595)
T2 chain: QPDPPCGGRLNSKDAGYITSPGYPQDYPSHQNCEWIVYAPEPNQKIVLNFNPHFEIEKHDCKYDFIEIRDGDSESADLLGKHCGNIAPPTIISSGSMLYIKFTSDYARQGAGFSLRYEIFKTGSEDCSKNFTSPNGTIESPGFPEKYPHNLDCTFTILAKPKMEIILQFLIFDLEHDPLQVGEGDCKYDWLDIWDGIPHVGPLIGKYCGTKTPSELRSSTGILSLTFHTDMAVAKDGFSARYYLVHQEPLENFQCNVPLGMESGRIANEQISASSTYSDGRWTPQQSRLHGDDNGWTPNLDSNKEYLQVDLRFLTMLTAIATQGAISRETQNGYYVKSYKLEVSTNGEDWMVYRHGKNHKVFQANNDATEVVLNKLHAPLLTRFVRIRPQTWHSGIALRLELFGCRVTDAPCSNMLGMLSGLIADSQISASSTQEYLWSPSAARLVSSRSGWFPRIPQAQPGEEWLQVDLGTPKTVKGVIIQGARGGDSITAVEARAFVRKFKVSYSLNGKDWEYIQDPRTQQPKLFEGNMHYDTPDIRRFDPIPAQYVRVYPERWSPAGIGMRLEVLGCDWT

B1: Fab 2-18 (Fab, V domains shown)
VH: EVQLVQSGGGLVQPGGSLRVSCAASGFSFSDHDMDWVRQAPGKGFEWVGRSRNKDYSSTTEYAASVRGRFTISRHTSEDLLYLELNTVKTEDTAVYFCARGPHHSDRSGYYGGTFDIWGQGTMVTVSS
VL: DIQMTQSPSSVSASVGDRVIITCRASQGISSWLAWYQQKPGRAPRLLIYDASTLESGVPSRFSGRGSGTEFTLTINSLQPEDFATYYCQQGNMFPLTFGGGTKVEIK
B2: Fab 1-32 (Fab, V domains shown)
VH: QVKLVESGGGVVQPGRSLRLSCAGSGFAFDNYAMHWVRQAPGKGLEWVAVISLEGRNKYYAGPAKGRFSISRDNSRNTVHLQMNSLRPEDTAVYFCARDMRYYYDSNGHYRNRYGMDVWGQGTTVIVSS
VL: DIQMTQSPSSLSASVGDSVTITCQASQDINQFVSWYQQKPGKPPKLLIYDASNLESGVPSRFSGSGSGTHFTFTISSLQPDDIATYYCQQYENLFTFGPGTKVDIK
B3: Fab 2-25 (Fab, V domains shown)
VH: QVQLVESGAEVKKPGASVKVSCKASGYTFTNYAIHWVRQAPGQRLEWMGWINAGRGNTKYSQKFQGRVTITRDTSASTAYMELSSLRSEDAAVYFCARDESTGDYYYYMDVWGKGTTVTVSS
VL: SYELTQPPSVSVSPGQTASITCSGDRLDDKYASWYQQKAGQSPVLVIYQDNKRPSGIPERFSGSNSGNTATLTISGTQAMDEADYYCQAWDSDTYVFGTGTKVTVL
B4: untagged NRP2 (receptor)
chain: RGQPDPPCGGRLNSKDAGYITSPGYPQDYPSHQNCEWIVYAPEPNQKIVLNFNPHFEIEKHDCKYDFIEIRDGDSESADLLGKHCGNIAPPTIISSGSMLYIKFTSDYARQGAGFSLRYEIFKTGSEDCSKNFTSPNGTIESPGFPEKYPHNLDCTFTILAKPKMEIILQFLIFDLEHDPLQVGEGDCKYDWLDIWDGIPHVGPLIGKYCGTKTPSELRSSTGILSLTFHTDMAVAKDGFSARYYLVHQEPLENFQCNVPLGMESGRIANEQISASSTYSDGRWTPQQSRLHGDDNGWTPNLDSNKEYLQVDLRFLTMLTAIATQGAISRETQNGYYVKSYKLEVSTNGEDWMVYRHGKNHKVFQANNDATEVVLNKLHAPLLTRFVRIRPQTWHSGIALRLELFGCRVTDAPCSNMLGMLSGLIADSQISASSTQEYLWSPSAARLVSSRSGWFPRIPQAQPGEEWLQVDLGTPKTVKGVIIQGARGGDSITAVEARAFVRKFKVSYSLNGKDWEYIQDPRTQQPKLFEGNMHYDTPDIRRFDPIPAQYVRVYPERWSPAGIGMRLEVLGCDWTDSKPTVETLGPTVKSEETTTPYPTEEEATECGENCSFEDDKDLQLPSGFNCNFDFLEEPCGWMYDHAKWLRTTWASSSSPNDRTFPDDRNFLRLQSDSQREGQYARLISPPVHLPRSPVCMEFQYQATGGRGVALQVVREASQESKLLWVIREDQGGEWKHGRIILPSYDMEYQIVFEGVIGKGRSGEIAIDDIRISTDVPLENCMEPISAFAGENFKVDIPEIHEREGYEDEIDDEYEVDWSNSSSATSGSGAPSTDKEKSWLYTLDPILITIIAMSSLGVLLGATCAGLLLYCTCSYSGLSSRSCTTLENYNFELYDGLKHKVKMNHQKCCSEA
B5: soluble ectodomain of the HCMV Pentamer (strain Towne) (complex)
chain 1: RYGAEAISEPLDKAFHLLLNTYGRPIRFLRENTTQCTYNSSLRNSTVVRENAISFNFFQSYNQYYVFHMPRCLFAGPLAEQFLNQVDLTETLERYQQRLNTYALVSKDLASYRSFSQQLKAQDSLGEQPTTVPPPIDLSIPHVWMPPQTTPHGWTESHTTSGLHRPHFNQTCILFDGHDLLFSTVTPCLHQGFYLIDELRYVKITLTEDFFVVTVSIDDDTPMLLIFGHLPRVLFKAPYQRDNFILRQTEKHELLVLVKKDQLNRHSYLKDPDFLDAALDFNYLDLSALLRNSFHRYAVDVLKSGRCQMLDRRTVEMAFAYALALFAAARQEEAGAQVSVPRALDRQAALLQIQEFMITCLSQTPPRTTLLLYPTAVDLAKRALWTPNQITDITSLVRLVYILSKQNQQHLIPQWALRQIADFALKLHKTHLASFLSAFARQELYLMGSLVHSMLVHTTERREIFIVETGLCSLAELSHFTQLLAHPHHEYLSDLYTPCSSSGRRDHSLERLTRLFPDATVPTTVPAALSILSTMQPSTLETFPDLFCLPLGESFSALTVSEHVSYVVTNQYLIKGISYPVSTTVVGQSLIITQTDSQTKCELTRNMHTTHSITAALNISLENCAFCQSALLEYDDTQGVINIMYMHDSDDVLFALDPYNEVVVSSPRTHYLMLLKNGTVLEVTDVVVDATDSRL
chain 2: VAVSVAPTAAEKVPAECPELTRRCLLGEVFQGDKYESWLRPLVNVTRRDGPLSQLIRYRPVTPEAANSVLLDDAFLDTLALLYNNPDQLRALLTLLSSDTAPRWMTVMRGYSECGDGSPAVYTCVDDLCRGYDLTRLSYGRSIFTEHVLGFELVPPSLFNVVVAIRNEATRTNRAVRLPVSTAAAPEGITLFYGLYNAVKEFCLRHQLDPPLLRHLDKYYAGLPPELKQTRVNLPAHSRYGPQAVDAR
chain 3: RVPRVRAEECCEFINVNHPPERCYDFKMCNRFTVALRCPDGEVCYSPEKTAEIRGIVTTMTHSLTRQVVHNKLTSCNYNPLYLEADGRIRCGKVNDKAQYLLGAAGSVPYRWINLEYDKITRIVGLDQYLESVKKHKRLDVCRAKMGYMLQ
chain 4: SPWSTLTANQNPSPPWSKLTYSKPHDAATFYCPFLYPSPPRSPLQFSGFQQVSTGPECRNETLYLLYNREGQTLVERSSTWVKKVIWYLSGRNQTILQRMPQTASKPSDGNVQISVEDAKIFGAHMVPKQTKLLRFVVNDGTRYQMCVMKLESWAHVFRDYSVSFQVRLTFTEANNQTYTFCTHPNLIV
chain 5: QCQRETAEKNDYYRVPHYWDACSRALPDQTRYKYVEQLVDLTLNYHYDASHGLDNFDVLKRINVTEVSLLISDFRRQNRRGGTNKRTTFNAAGSLAPHARSLEFSVRLFAN
B6: Fab 1-103 (Fab, V domains shown)
VH: QLQLQESGPGLVKPSETLSLTCSVSGDAISGSNYYWGWIRQPPGKGLQWIGSIYHTGSTFYNPSFSSRVTLSVDTSKNQFSLKLISVNAADTAVYYCARRIRGYSGTYDWGQGTLVTVSS
VL: DIQLTQSPSFLSASVGDRVTITCRASQDISSYVAWYQQKPGNAPKLLISSASTLPSGVPSRFSGSRSGTDFTLTISSLQPEDFATYYCQQLNNFGPGTTVDIK

Tests used:
[1] = target: B5; test: SPR
[2] = target: B5; test: SPR
[3] = target: 1-32–captured Pentamer (HCMV Pentamer bound by 1-32 IgG) (human cytomegalovirus (strain Towne) | …, UniProt P17176 24-718); test: BLI; Pentamer captured by 1-32 IgG
[4] = target: T1, NRP2 a2b1b2 (human neuropilin 2 …); test: BLI; 2 mM Ca2+
[5] = target: T2, monoFc-tagged NRP2 (human neuropilin 2 …); test: BLI; 2 mM Ca2+

Row | Binder | Kd [1] [nM] | other results
1 | B1 | 0.0493 | –
2 | B2 | 2.82 | koff [2]: 0.000264 s⁻¹
3 | B3 | 1.08 | –
4 | B4 | – | koff [3]: 0.00177 s⁻¹
5 | B5 | – | koff [4]: 0.00104 s⁻¹; koff [5]: 0.000271 s⁻¹
6 | B6 | 3.11 | –
